Test results as given in patent US11447754B2, “In vitro methods of chemical conversion using non-stereospecific glutathione lyases” (WISCONSIN ALUMNI RESEARCH FOUNDATION, priority 2017, dated 2022).
Where a chain is given by its changes, count along the chain named. Names and notes keep the numbering of the source.

How the values were obtained:
[1] = substrate: COc1cc(C(=O)[C@@H](CO)Oc2ccccc2OC)ccc1O; assay: Kinetics of the enzymatic cleavage of β(R)-MPHPV by BaeA (2:S14A/3:S15A); assay type: biochemical, Novosphingobium aromaticivorans; details: other: β(R)-MPHPV into GS-HPV, 24 nM dimeric enzyme, 5 mM GSH, pH 8.0, 25° C.
Description: To generate mutant […], pVP302K/2873-H2872(S14A) was amplified by kinase phosphorylated primers “Saro2873-S15A_R” and “Saro2873-S15A_F”. The linear fragment was circularized using T4 DNA ligase to generate plasmid pVP302K/2873(S15A)-H2872(S14A).
(§1) Expression and purification of recombinant enzymes. Recombinant proteins were expressed using the plasmids described above in E. coli B834 containing plasmid pRARE2 (Novagen) grown for ˜25 hours at 25° C. in ZYM-5052 Autoinduction Medium containing kanamycin and chloramphenicol. Recombinant proteins were purified using a Ni^2+-NTA column as described in Example 1 above, except using gravity-flow columns instead of an FPLC system. After removal of His8-tags using Tev protease, recombinant proteins retained a Ser-Ala-Ile-Ala-Gly-peptide on their N-termini, derived from the linker between the protein and the Tev protease recognition site. Recombinant LigF1 was purified as previously described (Gall and Ralph et al. 2014).
Kinetics of the enzymatic cleavage of β(R)-MPHPV. Various concentrations of racemic MPHPV (equal amounts of the β(S)- and β(R)-stereoisomers) were combined with 5 mM GSH in RB. At time zero, 100 μL of a given enzyme in RB+5 mM GSH was combined with 1000 μL of the racemic MPHPV/GSH sample at 25° C. (both samples were equilibrated to 25° C. before mixing). Final concentrations of β(R)-MPHPV in each reaction were 0.0045, 0.010, 0.017, 0.068, or 0.13 mM. […] At specified time points, 200 μL of a reaction was removed and combined with 40 μL of 1 M HCl (Acros Organics) to stop the reaction before HPLC analysis to quantify GS-HPV formed. […]
(§2) HPLC analysis. Analysis and quantification of aromatic compounds were performed using an Ultra AQ C18 5 μm column (Restek) attached to a System Gold HPLC (Beckman Coulter) with running buffers and methods described in Example 1. The eluent was analyzed for light absorbance between 191 and 600 nm, and absorbances at 280 nm were used for quantification of aromatic metabolites by comparing peak areas to those of standards.

[2] = substrate: COc1cc(C(=O)[C@@H](CO)Oc2ccccc2OC)ccc1O; assay: Kinetics of the enzymatic cleavage of β(R)-MPHPV by BaeA (3:N14A); assay type: biochemical, Novosphingobium aromaticivorans; details: other: β(R)-MPHPV into GS-HPV, 98 nM dimeric enzyme, 5 mM GSH, pH 8.0, 25° C.
From the text: To generate mutant 2:S14A, pVP302K/2873-H2872 was amplified by kinase phosphorylated primers “Saro2872-S14A_R” and “Saro2872-S14A_F”. To generate mutant 3:S15A, pVP302K/H2873-2872 was amplified by kinase phosphorylated primers “Saro2873-S15A_R” and “Saro2873-S15A_F”. To generate mutant 3:N14A, pVP302K/2873-H2872 was amplified by kinase phosphorylated primers “Saro2873-S15A_R” and “Saro2873-N14A_F”. These linear fragments were separately circularized using T4 DNA ligase to generate plasmids pVP302K/2873-H2872(S14A), pVP302K/H2873(S15A)-2872, and pVP302K/2873(N14A)-H2872, respectively.
as §1
Kinetics of the enzymatic cleavage of β(R)-MPHPV. Various concentrations of racemic MPHPV (equal amounts of the β(S)- and β(R)-stereoisomers) were combined with 5 mM GSH in RB. […] At specified time points, 200 μL of a reaction was removed and combined with 40 μL of 1 M HCl (Acros Organics) to stop the reaction before HPLC analysis to quantify GS-HPV formed. […]
as §2

[3] = substrate: COc1cc(C(=O)[C@H](CO)SC[C@H](NC(=O)CC[C@H](N)C(=O)O)C(=O)NCC(=O)O)ccc1O; assay: Kinetics of GS-HPV cleavage into HPV by ecYghU; assay type: biochemical, Escherichia coli DH5α; details: other: GS-HPV into HPV, 195 nM enzyme, GSH, pH 8.5, 25° C.
From the text: (§3) Enzyme purifications. Genes Saro_2595, E. coli yghU, E. coli yfcG, and SLG_04120 from Sphingobium sp. SYK-6 (codon-optimized for expression in E. coli) were individually cloned into plasmid pVP302K (Gall and Ralph et al. 2014) so that transcripts from the plasmids would be translated into proteins containing a His8-tag connected to the N-terminus via a tobacco etch virus (TEV) protease recognition site. Recombinant proteins were expressed in E. coli B834 (Wood 1966, Doherty et al. 1995) containing plasmid pRARE2 (Novagen, Madison, Wis.) grown for ˜24 h at 27° C. in ZYM-5052 Autoinduction Medium (Studier 2005) containing kanamycin and chloramphenicol. Recombinant proteins were purified essentially as described previously (Gall and Kim et al. 2014); see below for modifications to the procedure. After removal of His8-tags using TEV protease, recombinant proteins retained a Ser-Ala-Ile-Ala-Gly-peptide on their N-termini, derived from the linker between the protein and the TEV protease recognition site. Recombinant LigE and LigF1 from N. aromaticivorans were purified as previously described (Gall and Ralph et al. 2014).
(§4) Kinetics analysis of GS-HPV cleavage. The Reaction Buffer (RB) consisted of 25 mM Tris-HCl (pH 8.5) and 25 mM NaCl. The β(R)- and β(S)-stereoisomers of GS-HPV were separately generated by incubating racemic MPHPV (0.46 mM) in RB with 5 mM reduced glutathione (GSH) and either 38 μg/mL LigF1 or 36 μg/mL LigE, respectively, for several h. This sample, containing a single GS-HPV stereoisomer, guaiacol, and the unreacted MPHPV stereoisomer, was diluted with RB to achieve the desired concentration of GS-HPV for the time course reaction (0.005, 0.011, 0.022, 0.096, or 0.193 mM). An additional 5 mM GSH (dissolved in RB) was added prior to initiation of each time course. At time zero, 100 μL of the indicated enzyme sample (resuspended in RB) was combined with 1800 μL of the diluted GS-HPV reaction mixture to achieve final concentrations of 8 nM NaGSTNu, 195 nM ecYghU, 195 nM ecYfcG, or 47 nM (for β(R)-GS-HPV reactions) or 18 nM (for β(S)-GS-HPV reactions) SYK6GSTNu. Assays were performed at 25° C., and at specified time points, 300 μL of the reaction was removed and combined with 100 μL 1 M HCl (Acros Organics; Geel, Belgium) to stop the reaction before HPLC analysis to quantify HPV formed.
(§5) HPLC analysis. After extracellular aromatics were identified using LC-MS, routine analysis and quantification of aromatics were performed using an Ultra AQ C18 5 μm column (Restek, Bellefonte, Pa.) attached to a System Gold HPLC (Beckman Coulter, Brea, Calif.) with running buffers and chromatography conditions described in FIG. 14. The eluent was analyzed for light absorbance between 191 and 600 nm, and absorbances at 280 nm were used for quantification of aromatic metabolites by comparing peak areas to those of standards (retention times of measured metabolites are shown in FIG. 15).

[4] = substrate: COc1cc(C(=O)[C@@H](CO)SC[C@H](NC(=O)CC[C@H](N)C(=O)O)C(=O)NCC(=O)O)ccc1O; assay: Kinetics of GS-HPV cleavage into HPV by ecYghU; assay type: biochemical, Escherichia coli DH5α; details: other: GS-HPV into HPV, 195 nM enzyme, GSH, pH 8.5, 25° C.
From the text: as §3, §4, §5

[5] = Kinetics of GS-HPV cleavage, comparisons between enzymes over both stereoisomers; assay type: biochemical
Description: as §4, §5

B1: Novosphingobium aromaticivorans BaeA (Saro_2872/Saro_2873 heterodimer, SEQ ID NO:40/SEQ ID NO:42) variant 2:S14A/3:S15A (Ser14 of Saro_2872 and Ser15 of … (protein)
chain 1: MSALLYHGEPNGAALTVLAALAETGLDIECRRIDLLAGERHSLPGIVDPVALDLSIEGEGPVLVIDGEAMTESVFLAQYLDEAAGGVGLQPTDAYARWEMMMWCRQITERLSPAAALLGNLATSQSAIAAIPAEDFAILAARIVSDDLRERWQALNDDAVNAAQVADSETKVAAAVDRCEKQLGDGREWLMGTFSIADLVTYSWLAGMEPLRPAAFADAPLVKAWLARTAARPCVQAALARATISEPLRAWAPGPEINRWG
chain 2: MDEVSLYHWEPNANAGKPMLALMEKGVPFSSHYIDMLQFDQHKPEYLAINPQGTIPAMTHNGQVLTESTAIMEYVNDRFDGPDLMPADAQDRWRVRWWMKFMDQWLGPSFSMIGWSVFVGPMVRQRDPAELAAAIDRIPLPERRTAWRKAINGDFSESEMAESRRRVGLGIAKLEEELGKRPYVGSNQYSLADINIFNSTYSLPISQPDLAGKDRTPNIMRWLKRVYTREAVKKTWAMGKTDLAHRYGLIMAEIEG
notes: His8 tag removed by TEV
- Km [1]: 120 ± 30 µM
- kcat [1]: 2.8 ± 0.5 s⁻¹
- kcat/Km [1]: 23000 ± 8000 M⁻¹ s⁻¹

B2: Novosphingobium aromaticivorans BaeA (Saro_2872/Saro_2873 heterodimer, SEQ ID NO:40/SEQ ID NO:42) variant 3:N14A (Asn14 of Saro_2873 to Ala) (Novosphingobium … (protein)
chain 1: B1 chain 1 with A14S
chain 2: B1 chain 2 with N14A, A15S
notes: His8 tag on Saro_2872 removed by TEV
- Km [2]: 250 ± 60 µM
- kcat [2]: 0.14 ± 0.02 s⁻¹
- kcat/Km [2]: 500 ± 200 M⁻¹ s⁻¹

B3: Escherichia coli ecYghU, Nu-class glutathione-S-transferase, wild type, SEQ ID NO:26; recombinant, residues 21-313 of SEQ ID NO:28 (Escherichia coli K-12) (protein)
chain: MTDNTYQPAKVWTWDKSAGGAFANINRPVSGPTHEKTLPVGKHPLQLYSLGTPNGQKVTIMLEELLALGVTGAEYDAWLIRIGDGDQFSSGFVEVNPNSKIPALRDHTHNPPIRVFESGSILLYLAEKFGYFLPQDLAKRTETMNWLFWLQGAAPFLGGGFGHFYHYAPVKIEYAINRFTMEAKRLLDVLDKQLAQHKFVAGDEYTIADMAIWPWFGNVVLGGVYDAAEFLDAGSYKHVQRWAKEVGERPAVKRGRIVNRTNGPLNEQLHERHDASDFETNTEDKRQG
notes: E. coli B834
- Km [3]: 12 µM
- kcat [3]: 0.29 s⁻¹
- kcat/Km [3]: 24000 M⁻¹ s⁻¹
- Km [4]: 28 µM
- kcat [4]: 0.43 s⁻¹
- kcat/Km [4]: 16000 M⁻¹ s⁻¹
- kcat/KM with GS-HPV, fold lower than those of NaGSTNu [5]: ~100 fold
